Assay results as given in US20240368267A1 (KODIAK SCIENCES, published 2024).
Numbering of substitutions follows the chain as printed. In names and notes the source's numbering stands.

B1: anti-IL-6 antibody, heavy chain I51A, G66D / light chain WT (antibody, human IgG1, V domains shown)
VH: EVQLVESGGGLVQPGGSLRLSCAASGFTFSPFAMSWVRQAPGKGLEWVAKASPGGSWTYYSDTVTDRFTFSLDTSKSTAYLQMNSLRAEDTAVYYCARQLWGYYALDIWGQGTLVTVSS
VL: DIQLTQSPSSLSASVGDRVTITCSASISVSYMYWYQQKPGKAPKLLIYDMSNLASGVPSRFSGSGSGTDFTLTISSLQPEDFATYYCMQWSGYPYTFGQGTKVEIK
notes: Derived as m2; Engineered human IgG1
B2: anti-IL-6 antibody, heavy chain T63G, G66D / light chain WT (antibody, human IgG1, V domains shown)
VH: B1 VH with A51I, T63G
VL: B1 VL
notes: as for B1
B3: anti-IL-6 antibody, heavy chain S35Y, G66D / light chain WT (antibody, human IgG1, V domains shown)
VH: B1 VH with S35Y, A51I
VL: B1 VL
notes: as for B1
B4: anti-IL-6 antibody, heavy chain T63L, G66D / light chain WT (antibody, human IgG1, V domains shown)
VH: B1 VH with A51I, T63L
VL: B1 VL
notes: as for B1
B5: anti-IL-6 antibody, heavy chain I51P, G66D / light chain WT (antibody, human IgG1, V domains shown)
VH: B1 VH with A51P
VL: B1 VL
notes: as for B1
B6: anti-IL-6 antibody, heavy chain I51F, G66D / light chain WT (antibody, human IgG1, V domains shown)
VH: B1 VH with A51F
VL: B1 VL
notes: as for B1
B7: anti-IL-6 antibody, heavy chain I51Q, G66D / light chain WT (antibody, human IgG1, V domains shown)
VH: B1 VH with A51Q
VL: B1 VL
notes: as for B1
B8: anti-IL-6 antibody, heavy chain S35A, G66D / light chain WT (antibody, human IgG1, V domains shown)
VH: B1 VH with S35A, A51I
VL: B1 VL
notes: as for B1
B9: anti-IL-6 antibody, heavy chain S35P, G66D / light chain WT (antibody, human IgG1, V domains shown)
VH: B1 VH with S35P, A51I
VL: B1 VL
notes: as for B1
B10: anti-IL-6 antibody, heavy chain I51Y, G66D / light chain WT (antibody, human IgG1, V domains shown)
VH: B1 VH with A51Y
VL: B1 VL
notes: as for B1
B11: anti-IL-6 antibody, heavy chain T63F, G66D / light chain WT (antibody, human IgG1, V domains shown)
VH: B1 VH with A51I, T63F
VL: B1 VL
notes: as for B1
B12: anti-IL-6 antibody, heavy chain S35V, G66D / light chain WT (antibody, human IgG1, V domains shown)
VH: B1 VH with S35V, A51I
VL: B1 VL
notes: as for B1
B13: anti-IL-6 antibody, heavy chain S35T, G66D / light chain WT (antibody, human IgG1, V domains shown)
VH: B1 VH with S35T, A51I
VL: B1 VL
notes: as for B1
B14: anti-IL-6 antibody, heavy chain I51K, G66D / light chain WT (antibody, human IgG1, V domains shown)
VH: B1 VH with A51K
VL: B1 VL
notes: as for B1
B15: anti-IL-6 antibody, heavy chain I51D, G66D / light chain WT (antibody, human IgG1, V domains shown)
VH: B1 VH with A51D
VL: B1 VL
notes: as for B1
B16: anti-IL-6 antibody, heavy chain S35D, G66D / light chain WT (antibody, human IgG1, V domains shown)
VH: B1 VH with S35D, A51I
VL: B1 VL
notes: as for B1
B17: anti-IL-6 antibody, heavy chain I51S, G66D / light chain WT (antibody, human IgG1, V domains shown)
VH: B1 VH with A51S
VL: B1 VL
notes: as for B1
B18: anti-IL-6 antibody, heavy chain I51R, G66D / light chain WT (antibody, human IgG1, V domains shown)
VH: B1 VH with A51R
VL: B1 VL
notes: as for B1
B19: anti-IL-6 antibody, heavy chain S35I, G66D / light chain WT (antibody, human IgG1, V domains shown)
VH: B1 VH with S35I, A51I
VL: B1 VL
notes: as for B1
B20: anti-IL-6 antibody, heavy chain I51T, G66D / light chain WT (antibody, human IgG1, V domains shown)
VH: B1 VH with A51T
VL: B1 VL
notes: as for B1
B21: anti-IL-6 antibody, heavy chain S35F, G66D / light chain WT (antibody, human IgG1, V domains shown)
VH: B1 VH with S35F, A51I
VL: B1 VL
notes: as for B1
B22: anti-IL-6 antibody, heavy chain T63I, G66D / light chain WT (antibody, human IgG1, V domains shown)
VH: B1 VH with A51I, T63I
VL: B1 VL
notes: as for B1
B23: anti-IL-6 antibody, heavy chain S35Q, G66D / light chain WT (antibody, human IgG1, V domains shown)
VH: B1 VH with S35Q, A51I
VL: B1 VL
notes: as for B1
B24: anti-IL-6 antibody, heavy chain T63A, G66D / light chain WT (antibody, human IgG1, V domains shown)
VH: B1 VH with A51I, T63A
VL: B1 VL
notes: as for B1
B25: anti-IL-6 antibody, heavy chain I51W, G66D / light chain WT (antibody, human IgG1, V domains shown)
VH: B1 VH with A51W
VL: B1 VL
notes: as for B1
B26: anti-IL-6 antibody, heavy chain S35G, G66D / light chain WT (antibody, human IgG1, V domains shown)
VH: B1 VH with S35G, A51I
VL: B1 VL
notes: as for B1
B27: anti-IL-6 antibody, heavy chain I51V, G66D / light chain WT (antibody, human IgG1, V domains shown)
VH: B1 VH with A51V
VL: B1 VL
notes: as for B1
B28: anti-IL-6 antibody, heavy chain S35E, G66D / light chain WT (antibody, human IgG1, V domains shown)
VH: B1 VH with S35E, A51I
VL: B1 VL
notes: as for B1
B29: anti-IL-6 antibody, heavy chain I51G, G66D / light chain WT (antibody, human IgG1, V domains shown)
VH: B1 VH with A51G
VL: B1 VL
notes: as for B1
B30: anti-IL-6 antibody, heavy chain I51E, G66D / light chain WT (antibody, human IgG1, V domains shown)
VH: B1 VH with A51E
VL: B1 VL
notes: as for B1
B31: anti-IL-6 antibody, heavy chain T63H, G66D / light chain WT (antibody, human IgG1, V domains shown)
VH: B1 VH with A51I, T63H
VL: B1 VL
notes: as for B1
B32: anti-IL-6 antibody, heavy chain T63D, G66D / light chain WT (antibody, human IgG1, V domains shown)
VH: B1 VH with A51I, T63D
VL: B1 VL
notes: as for B1
B33: anti-IL-6 antibody, heavy chain S35K, G66D / light chain WT (antibody, human IgG1, V domains shown)
VH: B1 VH with S35K, A51I
VL: B1 VL
notes: as for B1
B34: anti-IL-6 antibody, heavy chain S35L, G66D / light chain WT (antibody, human IgG1, V domains shown)
VH: B1 VH with S35L, A51I
VL: B1 VL
notes: as for B1
B35: anti-IL-6 antibody, heavy chain I51L, G66D / light chain WT (antibody, human IgG1, V domains shown)
VH: B1 VH with A51L
VL: B1 VL
notes: as for B1
B36: anti-IL-6 antibody, heavy chain I51H, G66D / light chain WT (antibody, human IgG1, V domains shown)
VH: B1 VH with A51H
VL: B1 VL
notes: as for B1
B37: anti-IL-6 antibody, heavy chain S35W, G66D / light chain WT (antibody, human IgG1, V domains shown)
VH: B1 VH with S35W, A51I
VL: B1 VL
notes: as for B1

The binders below were run against T1, human IL-6 (human, UniProt P05231 30-212) (assay: SPR (Biacore T200), antibody from cell supernatant captured on Protein A, IL-6 flowed over, 37 C).
T1 construct: also called interleukin-6
Protocol: Those four positions were selected based on their tolerance for mutations as observed in bacterial and mammalian screens. […] These cultures were centrifuged and supernatants containing secreted antibodies were harvested and diluted in HBS-EP+ running buffer (1:20 ratio).
Antibodies were captured on a Protein A chip (GE) by injecting 1:20 cell supernatant dilutions at 10 μL/min for 60 seconds. […] The sensor chip was regenerated by a 60 seconds injection of 10 mM Glycine pH 1.7 at the flow rate of […]. […] For this setup, 1 μg/mL of purified antibody was injected over a Protein A chip at 10 μL/min for 25 seconds. […] The sensor chip was regenerated by a 60 seconds injection of 10 mM Glycine pH 1.7 at flow rate of 50 μL/min. Data analysis for supernatant and purified samples were performed using BIAevaluation software (GE). All sensorgrams were double reference subtracted and fit using a 1:1 Langmuir binding model.

T1 sequence (P05231 30-212 limits assumed): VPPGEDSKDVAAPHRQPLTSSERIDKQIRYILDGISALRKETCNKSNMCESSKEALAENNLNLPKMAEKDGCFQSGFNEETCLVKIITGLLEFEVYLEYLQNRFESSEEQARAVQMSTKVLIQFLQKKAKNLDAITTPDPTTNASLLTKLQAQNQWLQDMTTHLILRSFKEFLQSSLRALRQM

Kd [nM]	koff [s⁻¹]	kon [M⁻¹ s⁻¹]	Binder
0.327	0.000576	1.76e+06	B1
0.213	0.000397	1.86e+06	B2
0.503	0.000551	1.1e+06	B3
0.21	0.000363	1.73e+06	B4
387	0.00612	15800	B5
2.24	0.00305	1.36e+06	B6
0.336	0.000648	1.93e+06	B7
0.3	0.000494	1.65e+06	B8
11.9	0.00123	103000	B9
3.45	0.0051	1.48e+06	B10
0.221	0.000401	1.81e+06	B11
0.414	0.000469	1.13e+06	B12
0.297	0.000409	1.38e+06	B13
0.291	0.000402	1.38e+06	B14
2.69	0.00267	991000	B15
0.321	0.000641	2e+06	B16
0.191	0.000362	1.89e+06	B17
0.169	0.000202	1.2e+06	B18
0.334	0.000376	1.12e+06	B19

Kd [nM]	koff [s⁻¹]	kon [M⁻¹ s⁻¹]	Binder
0.232	0.000415	1.79e+06	B20
0.749	0.00119	1.59e+06	B21
0.211	0.000373	1.77e+06	B22
0.302	0.000395	1.31e+06	B23
0.177	0.000496	2.8e+06	B24
4.93	0.00943	1.91e+06	B25
0.284	0.00036	1.27e+06	B26
0.00369	6.68e-06	1.81e+06	B27
0.582	0.000509	874000	B28
0.428	0.000581	1.36e+06	B29
1.01	0.00076	754000	B30
0.213	0.00042	1.98e+06	B31
0.204	0.000392	1.92e+06	B32
0.557	0.000949	1.7e+06	B33
0.315	0.000351	1.11e+06	B34
0.386	0.000733	1.9e+06	B35
0.348	0.000529	1.52e+06	B36
23.5	0.00217	92300	B37
